Experimental data published in the RNAGym collection of RNA variant scans (doi:10.1073/pnas.2313332121).
This sample holds only a part of the variants without activity.

B1: TPR 5TU (parent)
chain: GGAUCUUCUCGAUCUAACAAAAAAGACAAAUCUGCCACAAAGCUUGAGAGCAUCUUCGGAUGCAGAGGCGGCAGCCUUCGGUGGCGCGAUAGCGCCAACGUUCUCAACUAUGACACGCAAAACGCGUGCUCCGUUGAAUGGAGUUUAUCAUG

Variants of: B1
Assay: polymerase ribozyme fitness, log enrichment relative to wild type (log ratio); higher = more active; in vitro selection for triplet polymerase activity
In short: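 Each subunit of a heterodimeric triplet polymerase ribozyme was mutagenized into a library by PCR, transcribed, and subjected to one round of in vitro selection, run in triplicate. Libraries were annealed with a biotinylated primer, the partner subunit and triplets, incubated frozen at −7 °C, and extended constructs were gel-excised, captured on streptavidin beads and recovered by RT-PCR. Input and output libraries were sequenced on Illumina, keeping genotypes with ≥10 input reads and ≥1 read per output. Fitness is log base 2 of genotype enrichment divided by wild-type enrichment, from inverse-variance-weighted replicate averages.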

Variant | polymerase ribozyme fitness (log ratio)
C63U G86A | -2.99
A64G A137G | ≤ -4.2
A60U C79U A98G C103A | ≤ -4.2
C63G G65A G71A C87A C118U U145C | ≤ -4.2
U61A C96G U109A | -3.32
G62C | -1.07
G62U | -0.546
G62A | -0.367
A60G U102A U109G A115C | -3.77
G62A A98U | -1.42
A60U U77A | ≤ -4.2
U61G C95U A97G C105A A106U | ≤ -4.2
A60U G70A C85U G86A | ≤ -4.2
G62C C93U U135A | -3.41
U61C A64G | ≤ -4.2
G62A G141U | 1.11
A60U G84U | -1.58
U61G C87A A150G | ≤ -4.2
A64G C99A G143A | ≤ -4.2
A60U C85A U145A | -1.8
U61A C96A G126A C131U | -2.54
C63U C85G U127A U139A U145C | ≤ -4.2
G62A G117A U134C A150G | ≤ -4.2
G62A C99U | -2.24

Variant | polymerase ribozyme fitness (log ratio)
A60G U61A A97G | -1.38
G62A C85A U151C | ≤ -4.2
A60G G70A U78C U130A | ≤ -4.2
U61G C96U U144G | -1.1
G62C A115C | -1.06
A64G G68C A142G G143A | ≤ -4.2
A60G U134A | -1.8
A60G U134G | -2.14
U61A G86U | -2.99
G62U C96U | -1.14
C63U G81C U82C U102G U104A C108A A150C | ≤ -4.2
G62U G94U C96U | -3.88
U61A C69A C85A U139A C149G | ≤ -4.2
U61A G86A A122G | -2.67
U61C C85A A121G U135A | ≤ -4.2
U61A C96G | -2.6
A60U C99U C118U | -2.07
U61G C99U | -2.77
C63A C76G C85U C96U A97G C116G | ≤ -4.2
A64C C85A | ≤ -4.2
U61C C96A | -3.31
U61G C85A | -2.29
C63A G80A C85G C96G A110G | ≤ -4.2
C63A C85G C95U C118U | -2.65

Variant | polymerase ribozyme fitness (log ratio)
A64C A115U A142U G143U | ≤ -4.2
A64G C69G C75A C85A A89U C93A U104G | ≤ -4.2
U61A G83C | -3.05
A60U U127G | -3.08
U61A A137C G140A | -4.19
C63U C75U C76U G80A U82A C108G C114U U148C | ≤ -4.2
U61A G84A G92U G100U | ≤ -4.2
C63U U139G | 0.261
U61C G80C C85U C99U U146A | ≤ -4.2
A60U G81U C85U G92U C93G C96A C103U G128A | ≤ -4.2
U61A C85A | -3.12
U61A C85G | ≤ -4.2
U61A C85U | -1.28
A60G U78A A106G C118U | ≤ -4.2
C63G G92U U102C A120G | -1.8
U61A C105U U134G U139G | -4.18
G62C C95U C96A | -3.59
U61A G88U | ≤ -4.2
U61G C87U C125G | ≤ -4.2
A64G C93G | -4.05
A60U G143A | -1.07
U61C G94A G141A C149A | ≤ -4.2
U61A C75G | -3.89
U61A A122G G140C | ≤ -4.2

Variant | polymerase ribozyme fitness (log ratio)
A64C C85A C118G A121C | ≤ -4.2
U61A A91C G100C A142U | ≤ -4.2
A60G G94A | 0.0761
U61G C93U | -1.89
U61G C93A | -4.13
U61G G83U G86A C149U | ≤ -4.2
U61A A89U | -0.941
G62U G124C | -1.42
C63U U148C | -1.65
U61G C95U | -2.07
U61G C95G | -2.32
A60U C87A C95A C108A A110G | -4.07
G62C C63U C79A C85U A98U C99U C131A U135C U144A | ≤ -4.2
U61A A147U | -0.329
C63A C87A A91G | ≤ -4.2
U61A C63U G133U | ≤ -4.2
U61G C96U | -1.29
U61A C87U | -2.83
A60G G70C U77A U135G | ≤ -4.2
A60G G94A U102A C123G | -1.46
A60G G117A | 0.434
U61A C72U | -3.66
A60G U134G G143U | -3.39
U61G G67U U90A A120G | ≤ -4.2

Variant | polymerase ribozyme fitness (log ratio)
U61A U90G U139C | ≤ -4.2
C63U U104G | 0.272
A60U U139A A150U | ≤ -4.2
G62A C69U G92C | -3.74
A60U C93U | -3.16
C63A A64C C72U A89U U130G | ≤ -4.2
U61G C75U U144C | -1.52
A64G G83U C118A A138G | ≤ -4.2
U61A A142G | -1.25
G62C G83A | -2.25
C63A A147C | 0.331
U61G C93G C99G C123G C125G | ≤ -4.2
U61A U78A C95U C123A U146A | ≤ -4.2
C63U A98G G126U C129G | ≤ -4.2
C63U G70A G80C G83C C108G C116U | ≤ -4.2
A64C C69U G84A G136U G141U | ≤ -4.2
U61A A97C | -1.48
C63A A107C U111C A122G | ≤ -4.2
U61A C95U | -0.916
G62A A121G | -0.384
C63G G81C U82A | -0.391
U61C C69U G70U G86U A107C | ≤ -4.2
C63U A91U C93G U139G | ≤ -4.2
U61A A64C G71A G86A A91C C93U C118G | ≤ -4.2

Variant | polymerase ribozyme fitness (log ratio)
A60U U130G G143C | ≤ -4.2
C63U G65A A73U A115G U134G | ≤ -4.2
G62C A120G | -0.94
A64G A91G C123G | ≤ -4.2
U61C C96A A121G | -2.74
A64C G65A A107G G112U G124A G141U U148G | ≤ -4.2
A60U U78C A91U C116A G117U | ≤ -4.2
A60U C76U G86A G141A | -3.96
A60U C93U U151G | ≤ -4.2
U61G G136C | -2.91
U61A G65C C85A C96G U151C | ≤ -4.2
U61A C149A | ≤ -4.2
G62U U77A G86U C99G | ≤ -4.2
A60G U144A | -0.159
C63U G83C U102A A142G A150C | ≤ -4.2
C63U G126C | 0.627
A60U C85A U101A A119G U127C | ≤ -4.2
A60U A91U C96A C103A A115U | ≤ -4.2
U61A G126C | -0.89
U61G C85A G141A | -1.58
A60U G92U G141C | -2.82
A60G U61G G81C A122C A142U | -3.02
U61G G94A A106C C116A G133C U146A | ≤ -4.2
A60U C63A C79G C96U A122U C123U | ≤ -4.2

Variant | polymerase ribozyme fitness (log ratio)
G62A C85A A121U U134C A137G | -3.02
G62A C87G U90A C96U C99U U148G | ≤ -4.2
U61G G68A U77C C87U C93G C123U G126C U135C | ≤ -4.2
G62A A73C C75G C87U C103G C132G U145G U146A | ≤ -4.2
U61G C76G C123U | ≤ -4.2
U61C G92A A120C C123A U144C | ≤ -4.2
U61G C69G U82A C95A A122U U148C | ≤ -4.2
U61A A73G | -1.42
U61A A73C | -3.91
U61A G68A | ≤ -4.2
U61A G124C | -2
U61A C125A | -2.73
U61A C125U | -1.86
C63U C87G | -4.05
C63G C69G | -1.75
U61A U144C | -2.19
G62U A73U | -3.59
G62A G140A | -3.95
C63U A119U U144C | -0.319
G62A C69U | -2.82
A60U A89C A142U | -2.09
U61A C75U C125A G128A A142U A147G | ≤ -4.2
C63G A91G | -2.57
